{"source": "paper PMC7003851", "key": {"IRP1 wild-type [1]": {"target": "T1, IRP1 wild-type (Homo sapiens, UniProt P21399 1-889)", "T1 sequence": "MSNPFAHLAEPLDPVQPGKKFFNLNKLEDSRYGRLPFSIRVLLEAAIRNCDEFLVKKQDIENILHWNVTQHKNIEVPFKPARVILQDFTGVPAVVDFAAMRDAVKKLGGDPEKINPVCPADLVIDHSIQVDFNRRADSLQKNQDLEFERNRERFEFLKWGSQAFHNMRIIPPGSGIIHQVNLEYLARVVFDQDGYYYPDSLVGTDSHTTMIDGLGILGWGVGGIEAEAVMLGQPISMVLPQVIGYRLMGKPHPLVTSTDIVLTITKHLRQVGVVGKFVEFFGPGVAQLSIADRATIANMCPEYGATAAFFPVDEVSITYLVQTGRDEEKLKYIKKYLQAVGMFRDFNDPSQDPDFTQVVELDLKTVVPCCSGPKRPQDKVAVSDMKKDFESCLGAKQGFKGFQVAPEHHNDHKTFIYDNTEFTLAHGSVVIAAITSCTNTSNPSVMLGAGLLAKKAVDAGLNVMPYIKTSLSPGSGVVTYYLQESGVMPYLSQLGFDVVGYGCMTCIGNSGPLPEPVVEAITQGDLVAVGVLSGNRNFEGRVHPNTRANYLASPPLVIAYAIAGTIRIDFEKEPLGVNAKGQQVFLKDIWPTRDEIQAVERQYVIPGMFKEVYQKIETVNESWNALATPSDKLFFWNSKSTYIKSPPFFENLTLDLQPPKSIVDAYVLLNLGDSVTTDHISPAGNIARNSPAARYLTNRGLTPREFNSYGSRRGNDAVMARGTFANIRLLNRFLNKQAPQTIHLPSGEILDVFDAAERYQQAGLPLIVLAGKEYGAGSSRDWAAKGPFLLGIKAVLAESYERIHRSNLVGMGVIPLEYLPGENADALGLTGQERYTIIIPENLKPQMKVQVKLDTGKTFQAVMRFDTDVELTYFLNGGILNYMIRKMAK", "assay": "EMSA"}, "IRP1 wild-type [2]": {"target": "T1, IRP1 wild-type", "assay": "EMSA", "remark": "listed apart in the source"}}}
{"binder": "UUUUUGUUUCCUGCUUCAACAGUGCUUGGACGGAAC (structured_RNA)", "note": "[wt-IRE (FTH-IRE)]", "values": [{"measurement": "Kd", "setting": "IRP1 wild-type [1]", "result": "18 ± 5", "unit": "nM"}]}
{"binder": "UUUUUGUUUCCUGCUUCAAAGUGCUUGGACGGAAC (structured_RNA)", "note": "[IRE-ΔC]", "values": [{"measurement": "binding signal", "setting": "IRP1 wild-type [2]", "result": "~5 fold unbound RNA fraction vs wt-IRE"}]}
